Assay results from PMC5541836.

Target: Wild-type spindle pole bodies (SPBs) purified from budding yeast (strain BGY72-8A: Spc97-TAP, Spc42-mCherry) (budding yeast) (UniProt P38863)
Assay: laser trap rupture force

Sequence of Wild-type spindle pole bodies (SPBs) purified from budding yeast (strain BGY72-8A: Spc97-TAP, Spc42-mCherry) (budding yeast) (P38863 whole entry, looked up): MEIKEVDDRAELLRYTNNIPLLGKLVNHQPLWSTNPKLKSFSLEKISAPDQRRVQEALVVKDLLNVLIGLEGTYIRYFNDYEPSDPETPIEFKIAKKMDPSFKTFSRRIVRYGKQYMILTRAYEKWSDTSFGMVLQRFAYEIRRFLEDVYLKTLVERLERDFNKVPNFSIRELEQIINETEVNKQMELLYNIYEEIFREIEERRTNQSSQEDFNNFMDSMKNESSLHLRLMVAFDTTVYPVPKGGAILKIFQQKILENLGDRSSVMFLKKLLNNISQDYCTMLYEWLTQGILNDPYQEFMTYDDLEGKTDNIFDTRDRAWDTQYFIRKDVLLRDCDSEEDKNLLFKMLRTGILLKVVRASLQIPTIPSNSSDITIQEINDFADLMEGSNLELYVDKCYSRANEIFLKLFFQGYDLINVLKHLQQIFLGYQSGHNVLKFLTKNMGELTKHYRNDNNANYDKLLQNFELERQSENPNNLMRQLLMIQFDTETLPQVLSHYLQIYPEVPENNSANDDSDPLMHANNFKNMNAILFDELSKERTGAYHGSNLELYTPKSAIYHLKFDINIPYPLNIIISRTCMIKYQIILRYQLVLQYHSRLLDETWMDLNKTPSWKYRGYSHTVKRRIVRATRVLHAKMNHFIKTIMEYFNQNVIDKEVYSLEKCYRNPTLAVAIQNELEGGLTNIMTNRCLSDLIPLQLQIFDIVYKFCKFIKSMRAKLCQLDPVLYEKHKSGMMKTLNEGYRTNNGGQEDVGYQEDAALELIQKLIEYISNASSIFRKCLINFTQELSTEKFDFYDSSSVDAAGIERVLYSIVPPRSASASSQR
Sequence of Microtubules assembled from bovine brain tubulin (Q6B856 whole entry, looked up): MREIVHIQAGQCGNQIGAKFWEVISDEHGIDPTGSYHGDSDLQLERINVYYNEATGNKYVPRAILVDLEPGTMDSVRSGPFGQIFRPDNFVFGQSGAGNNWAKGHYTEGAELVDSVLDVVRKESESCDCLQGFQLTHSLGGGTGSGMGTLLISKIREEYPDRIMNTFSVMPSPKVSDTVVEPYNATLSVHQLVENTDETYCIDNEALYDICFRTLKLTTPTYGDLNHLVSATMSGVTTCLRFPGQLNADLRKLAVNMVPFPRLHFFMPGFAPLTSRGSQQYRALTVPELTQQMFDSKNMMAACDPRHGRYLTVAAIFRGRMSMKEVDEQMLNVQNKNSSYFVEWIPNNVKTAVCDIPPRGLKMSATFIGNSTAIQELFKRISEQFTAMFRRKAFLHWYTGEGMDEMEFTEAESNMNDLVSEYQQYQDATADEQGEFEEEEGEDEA

Substance: Microtubules assembled from bovine brain tubulin (from UniProt Q6B856 1-445) (complex)
- raw mean rupture force: 45 pN
